Data from article PMC7859452, “A Dimerization Site at SCR-17/18 in Factor H Clarifies a New Mechanism for Complement Regulatory Control” (Frontiers in Immunology, 2020).

B1: Complement Factor H SCR-16/18H fragment (domain or fragment)
chain: GLPCKSPPEISHGVVAHMSDSYQYGEEVTYKCFEGFGIDGPAIAKCLGEKWSHPPSCIKTDCLSLPSFENAIPMGEKKDVYKAGEQVTYTCATYYKMDGASNVTCINSRWTGRPTCRDTSCVNPPTVQNAYIVSRQMSKYPSGERVRYQCRSPYEMFGDEEVMCLNGNWTEPPQCKDST
modifications: N-linked glycan chains on SCR-17 and SCR-18
B2: Complement Factor H SCR-17/18H fragment (domain or fragment)
chain: TDCLSLPSFENAIPMGEKKDVYKAGEQVTYTCATYYKMDGASNVTCINSRWTGRPTCRDTSCVNPPTVQNAYIVSRQMSKYPSGERVRYQCRSPYEMFGDEEVMCLNGNWTEPPQCKDST
modifications: N-linked glycan chains on SCR-17 and SCR-18
B3: Complement Factor H SCR-18/20 fragment (domain or fragment)
chain: TSCVNPPTVQNAYIVSRQMSKYPSGERVRYQCRSPYEMFGDEEVMCLNGNWTEPPQCKDSTGKCGPPPPIDNGDITSFPLSVYAPASSVEYQCQNLYQLEGNKRITCRNGQWSEPPKCLHPCVISREIMENYNIALRWTAKQKLYSRTGESVEFVCKRGYRLSSRSHTLRTTCWDGKLEYPTCAKR
modifications: N-linked glycan chain on SCR-18
B4: Complement Factor H SCR-18H fragment (domain or fragment)
chain: TSCVNPPTVQNAYIVSRQMSKYPSGERVRYQCRSPYEMFGDEEVMCLNGNWTEPPQCKDST
modifications: also: N-linked glycan chain, site not given here
B5: Complement Factor H SCR-17H fragment (domain or fragment)
chain: TDCLSLPSFENAIPMGEKKDVYKAGEQVTYTCATYYKMDGASNVTCINSRWTGRPTCRDTS
modifications: also: N-linked glycan chain, site not given here
B6: Complement Factor H SCR-16/20 fragment (domain or fragment)
chain: GLPCKSPPEISHGVVAHMSDSYQYGEEVTYKCFEGFGIDGPAIAKCLGEKWSHPPSCIKTDCLSLPSFENAIPMGEKKDVYKAGEQVTYTCATYYKMDGASNVTCINSRWTGRPTCRDTSCVNPPTVQNAYIVSRQMSKYPSGERVRYQCRSPYEMFGDEEVMCLNGNWTEPPQCKDSTGKCGPPPPIDNGDITSFPLSVYAPASSVEYQCQNLYQLEGNKRITCRNGQWSEPPKCLHPCVISREIMENYNIALRWTAKQKLYSRTGESVEFVCKRGYRLSSRSHTLRTTCWDGKLEYPTCAKR
modifications: N-linked glycan chains on SCR-17 and SCR-18

Columns and labels:
[1] = molecular target: the molecule itself; test: AUC; sedimentation velocity, c(s) size distribution (SEDFIT), 50,000 rpm, 20 °C, 10 mM Hepes pH 7.4, 50 mM NaCl (low salt control; data not shown); KD of dimer to monomers from integration of the c(s) peaks
[2] = molecular target: the molecule itself; test: AUC; sedimentation velocity, c(s) size distribution (SEDFIT), 50,000 rpm, 20 °C, 10 mM Hepes pH 7.4, 137 mM NaCl, concentration series 0.2 – 3 mg/ml; KD of dimer to monomers from integration of the c(s) peaks

| Protein | Kd [1] [µM] | percent dimer [1] [%] | Kd [2] [µM] | percent dimer [2] [%] | stoichiometry N [2] | stoichiometry N [1] |
| --- | --- | --- | --- | --- | --- | --- |
| B1 | ~10 | 50 | 6 ± 5 | 60 | 2 | – |
| B2 | 2 ± 1 | – | 3 ± 1 | 80 | 2 | – |
| B3 | 180 ± 130 | – | 590 ± 150 | – | – | 2 |
| B4 | ~60 | – | 37 ± 27 | ~50 | – | 2 |
| B5 | – | – | 5 ± 4 | 80 | – | 2 |
| B6 | 90 ± 20 | – | 31 ± 14 | 40 | – | 2 |
